Data on eleven molecules can be found in patent US20240026343A1, “METHOD FOR SCREENING DIMERIZED CYCLIC PEPTIDE” (AJINOMOTO CO., INC., priority 2021, published 2024).

Positions of bridges follow the written chain, without caps; N, C: chain ends. No end group written: not given here.

Assay [1] has as its target Met (Homo sapiens, UniProt P08581). Conditions: reported; cited from earlier work.
For assay [2], the system named is HGF-Erk-SRE pathway. Nature of the assay: SRE luciferase reporter assay of cell-free translation products from ribosome display DNAs (Example 4). It is filed as cell-based. Conditions: HEK293E cells with SRE reporter; cell-free translation product at 25- to 625-fold dilution; HGF comparator; FIG. 16. As for the experimental part:
For cell-free translation, to 20 ng of each DNA, 2.5 μL of Solution I, 0.25 μL of Solution II, 0.5 μL of Solution III, and 1.75 μL of water were added, and the mixture was incubated at 37° C. for 6 hours to carry out the translation reaction.
(§1) Reporter assays were carried out as follows. To 25 μL of Opti-MEM medium (Thermo Fisher Scientific), 0.6 μL of Attractene Transfection Reagent (QIAGEN) was added and incubated at room temperature for 5 minutes. To the above mixed solution, a mixed solution of 25 μL of Opti-MEM and 1 μL of SRE reporter vector (QIAGEN) was added and incubated at room temperature for 20 minutes. This mixed solution was added to a 96-well plate, HEK293E cells were seeded thereon at 40,000 cells/well, and incubated overnight at 37° C. in a 5% CO2 incubator. After transfection, all the culture supernatant was removed, and 100 μL of Opti-MEM medium (evaluation basal medium), containing 0.5% FBS (Thermo Fisher Scientific), 1% non-essential amino acid solution (Thermo Fisher Scientific), and penicillin-streptomycin (Nacalai Tesque), was added thereto, which was cultured at 37° C. for 4 hours to starve the cells.
To the evaluation basal medium, 0 to 100 ng/mL HGF was added, or the above cell-free expression reaction solution was added at a 25- to 625-fold dilution with respect to the medium, and 100 μL of the evaluation basal medium was added to the cells. The cells were stimulated by culturing overnight at 37° C. in a 5% CO2 incubator.
Dual-Luciferase Reporter Assay System (Promega) was used for signal intensity detection. […] Activation of the HGF-Erk-SRE pathway was quantified by detecting Firefly luciferase luminescence from cell lysates with a plate reader. Subsequently, 50 μL of Glo & Stop reagent solution was added, and after 10 minutes, luminescence of Renilla luciferase, an internal standard, was detected to quantify the cell count. The signal activity of each sample was quantified as SRE activity=(luminescence intensity of Firefly luciferase)/(luminescence intensity of Renilla luciferase). […]

In assay [3] the test system is HGF-Erk-SRE pathway. Put plainly: SRE luciferase reporter assay of aMD4dY-leucine zipper fusion dimers (Example 2). The format is cell-based. Conditions: HEK293E cells with SRE reporter; cell-free expression reaction solution at 25- to 625-fold dilution; overnight stimulation; HGF 0 to 100 ng/mL as comparator; FIGS. 8-13. As to the method: as §1, with “The dimer of each aMD4dY-leucine zipper fusion was evaluated by luciferase assay.” for “Reporter assays were carried out as follows.”
To the evaluation basal medium, 0 to 100 ng/mL HGF was added, or the cell-free expression reaction solution was added at a 25- to 625-fold dilution with respect to the medium, and 100 μL of the evaluation basal medium was added to the cells. The cells were stimulated by culturing overnight at 37° C. in a 5% CO2 incubator.
Dual-Luciferase Reporter Assay System (Promega) was used for signal intensity detection. The medium supernatant in an amount of 100 μL was removed, 50 μL of Glo reagent was added, and cells were lysed at room temperature for 10 minutes. Activation of the HGF-Erk-SRE pathway was quantified by detecting Firefly luciferase luminescence from cell lysates with a plate reader. Subsequently, 50 μL of Glo & Stop reagent solution was added, and after 10 minutes, luminescence of Renilla luciferase, an internal standard, was detected to quantify the cell count. The signal activity of each sample was quantified as SRE activity=(luminescence intensity of Firefly luciferase)/(luminescence intensity of Renilla luciferase). A signal activity value relative to a sample without an addition of evaluation compound was obtained and defined as relative reporter activity.

Assay [4] addresses T1, Recombinant Human HGFR/c-MET Fc Chimera Protein (R&D systems, 8614-MT-100) (human, UniProt P08581 25-932).
T1 construct: Bought reagent; also called c-Met immobilized on magnetic beads; Fc part of the bought chimera not given
Put plainly: ribosome display selection on c-MET Fc chimera on magnetic beads, from a 1:50:50 DNA mix; DNA length analysis of the recovered cDNA.

Assay [5] deals with T2, Recombinant Human Erythropoietin R Fc Chimera Protein, CF (R&D systems, 963-ER-50) (human, UniProt P19235 25-250).
T2 construct: Bought reagent; also called EPO receptor immobilized on magnetic beads; Fc part of the bought chimera not given
T2 sequence (looked up): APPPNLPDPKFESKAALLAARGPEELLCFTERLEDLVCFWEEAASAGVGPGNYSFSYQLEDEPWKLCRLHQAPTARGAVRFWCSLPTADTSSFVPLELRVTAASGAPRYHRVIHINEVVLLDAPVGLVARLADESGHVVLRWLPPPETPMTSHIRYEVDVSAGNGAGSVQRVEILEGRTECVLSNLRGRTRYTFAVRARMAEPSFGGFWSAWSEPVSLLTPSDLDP
Nature of the assay: ribosome display selection on Erythropoietin R Fc chimera on magnetic beads, from a 1:50:50 DNA mix; DNA length analysis of the recovered cDNA.

T1 sequence (P08581 25-932, change not shown): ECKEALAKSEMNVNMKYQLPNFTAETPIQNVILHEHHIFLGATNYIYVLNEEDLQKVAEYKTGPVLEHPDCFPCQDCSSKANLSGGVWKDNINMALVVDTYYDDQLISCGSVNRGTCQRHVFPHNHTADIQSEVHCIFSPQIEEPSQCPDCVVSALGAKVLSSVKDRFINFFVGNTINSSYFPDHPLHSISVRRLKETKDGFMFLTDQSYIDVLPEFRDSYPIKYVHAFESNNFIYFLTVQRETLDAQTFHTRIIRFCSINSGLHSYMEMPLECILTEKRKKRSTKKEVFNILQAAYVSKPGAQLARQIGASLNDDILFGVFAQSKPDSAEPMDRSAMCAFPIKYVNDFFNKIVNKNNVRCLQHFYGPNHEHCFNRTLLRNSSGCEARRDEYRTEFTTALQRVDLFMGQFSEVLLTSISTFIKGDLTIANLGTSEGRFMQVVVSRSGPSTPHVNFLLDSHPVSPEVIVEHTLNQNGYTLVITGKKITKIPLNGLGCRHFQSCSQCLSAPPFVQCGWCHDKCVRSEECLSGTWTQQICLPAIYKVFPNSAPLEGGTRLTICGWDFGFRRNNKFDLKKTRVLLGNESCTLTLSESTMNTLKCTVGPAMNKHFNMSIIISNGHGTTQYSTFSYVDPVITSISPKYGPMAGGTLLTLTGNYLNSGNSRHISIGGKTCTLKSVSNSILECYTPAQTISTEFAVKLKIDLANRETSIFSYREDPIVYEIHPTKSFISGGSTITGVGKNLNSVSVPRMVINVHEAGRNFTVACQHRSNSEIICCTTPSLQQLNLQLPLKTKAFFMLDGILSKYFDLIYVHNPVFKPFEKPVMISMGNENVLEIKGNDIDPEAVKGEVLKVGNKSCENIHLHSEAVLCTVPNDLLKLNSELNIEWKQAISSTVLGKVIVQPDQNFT
Chain of Met (P08581 25-1390): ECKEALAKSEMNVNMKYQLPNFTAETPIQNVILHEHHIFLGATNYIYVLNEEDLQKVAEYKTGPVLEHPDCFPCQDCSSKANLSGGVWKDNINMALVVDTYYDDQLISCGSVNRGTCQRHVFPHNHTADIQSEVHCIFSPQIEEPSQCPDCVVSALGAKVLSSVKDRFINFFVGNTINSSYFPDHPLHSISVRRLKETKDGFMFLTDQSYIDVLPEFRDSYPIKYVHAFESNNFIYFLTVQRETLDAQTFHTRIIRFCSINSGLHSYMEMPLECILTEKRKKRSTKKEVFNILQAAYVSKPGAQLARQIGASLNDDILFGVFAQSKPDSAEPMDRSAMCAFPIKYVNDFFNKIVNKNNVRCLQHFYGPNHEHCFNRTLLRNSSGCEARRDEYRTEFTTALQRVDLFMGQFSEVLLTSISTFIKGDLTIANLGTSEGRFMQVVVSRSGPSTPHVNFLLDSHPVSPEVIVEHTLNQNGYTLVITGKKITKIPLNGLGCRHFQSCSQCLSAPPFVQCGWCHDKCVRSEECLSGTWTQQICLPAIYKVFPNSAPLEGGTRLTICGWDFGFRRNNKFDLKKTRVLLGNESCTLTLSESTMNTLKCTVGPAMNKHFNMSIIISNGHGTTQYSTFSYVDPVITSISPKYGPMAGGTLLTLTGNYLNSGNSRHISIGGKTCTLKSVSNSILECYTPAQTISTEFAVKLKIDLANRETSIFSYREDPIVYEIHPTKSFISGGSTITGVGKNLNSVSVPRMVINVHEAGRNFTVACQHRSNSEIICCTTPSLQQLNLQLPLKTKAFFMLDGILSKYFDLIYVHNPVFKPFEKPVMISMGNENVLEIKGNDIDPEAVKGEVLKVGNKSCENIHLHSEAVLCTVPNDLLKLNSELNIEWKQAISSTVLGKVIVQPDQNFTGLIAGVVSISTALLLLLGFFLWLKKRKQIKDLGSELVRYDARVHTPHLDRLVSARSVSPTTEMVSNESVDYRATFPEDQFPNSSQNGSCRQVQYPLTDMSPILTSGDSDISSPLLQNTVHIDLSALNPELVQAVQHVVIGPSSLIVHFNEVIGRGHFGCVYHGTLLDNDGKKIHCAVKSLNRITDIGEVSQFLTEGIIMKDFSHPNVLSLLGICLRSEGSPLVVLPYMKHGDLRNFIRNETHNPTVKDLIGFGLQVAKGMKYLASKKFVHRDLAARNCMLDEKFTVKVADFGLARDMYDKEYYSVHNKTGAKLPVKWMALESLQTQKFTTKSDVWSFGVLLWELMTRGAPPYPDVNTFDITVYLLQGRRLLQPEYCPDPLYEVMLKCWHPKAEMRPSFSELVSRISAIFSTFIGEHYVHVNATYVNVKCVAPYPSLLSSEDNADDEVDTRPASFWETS

In the case of “CRQFNRRTHEVWNLDC (disulfide 1-16) [aMD4dY]”, the “HGF-like activity (Met agonist) when dimerized” value in assay [1] was “exhibits an HGF-like activity”.

B1: EMP′-Jun-cys-N11-SecM-GS3: erythropoietin receptor binding cyclic peptide (EMP′)-leucine zipper fusion, SEQ ID NO: 73 (protein)
chain: MAETCHMGPMTWVCGAAPAAPAPAAGGRIARLEEKVKTLKAQNSELASTANMLREQVAQLKQKVMNGCGGKDHLIHNHHKHEHAHAEHLFSTPVWISQAQGIRAGGSGSGS
modifications: cyclic peptide disulfide; EMP'-Jun-cys-N11-SecM-GS3; DISULFID 5..14 Disulfide bridge between Cys-5 and Cys-14
Take B1: the “relative SRE reporter activity (relative receptor activity)” value in assay [2] is reported as “only aMD4dY-Jun-cys-N11-SecM-GS3 showed activity”.

B2: cys-Jun-PA8-aMD4dY: aMD4dY-leucine zipper fusion, SEQ ID NO: 50 (protein)
chain: MGGCGGRIARLEEKVKTLKAQNSELASTANMLREQVAQLKQKVMNAAPAAPAPACRQFNRRTHEVWNLDC
modifications: disulfide 55-70
Turning to B2, in assay [3], the “relative reporter activity (SRE activity)” value (“relative reporter activity” for short) is “found to have signal activation ability”.

B3: aMD4dY-Jun-cys-N11-SecM-GS3 (designed binder)
chain: MAETCRQFNRRTHEVWNLDCGAAPAAPAPAAGGRIARLEEKVKTLKAQNSELASTANMLREQVAQLKQKVMNGCGGKDHLIHNHHKHEHAHAEHLFSTPVWISQAQGIRAGGSGSGS
modifications: cyclic peptide part closed by a disulfide bond between its two Cys
notes: In the reporter assays it was a free cell-free translation product
For B3, the binding result in assay [4] is “binds”.

B4: TPO-Jun-cys-N11-SecM-GS3: thrombopoietin receptor binding cyclic peptide-leucine zipper fusion, SEQ ID NO: 72 (protein)
chain: MAETCADGPTLREWISFCGAAPAAPAPAAGGRIARLEEKVKTLKAQNSELASTANMLREQVAQLKQKVMNGCGGKDHLIHNHHKHEHAHAEHLFSTPVWISQAQGIRAGGSGSGS
modifications: cyclic peptide disulfide; TPO-Jun-cys-N11-SecM-GS3; DISULFID 5..18 Disulfide bridge between Cys-5 and Cys-18
As for B4, the “relative SRE reporter activity (relative receptor activity)” value in assay [2] was “only aMD4dY-Jun-cys-N11-SecM-GS3 showed activity”.

B5: aMD4dY-PA8-Jun: aMD4dY-leucine zipper fusion without cysteine residue, SEQ ID NO: 46 (protein)
chain: MAETCRQFNRRTHEVWNLDCGAAPAAPAPAAGGGRIARLEEKVKTLKAQNSELASTANMLREQVAQLKQKVMN
modifications: aMD4dY-PA8-Jun; DISULFID 5..20 Disulfide bridge between Cys-5 and Cys-20
As to B5, the “relative reporter activity” value in assay [3] is “did not show activity”.

B6: aMD4dY-PA8-cys-Jun: aMD4dY-leucine zipper fusion polypeptide, SEQ ID NO: 45, cell-free expressed, forms disulfide dimer (protein)
chain: MAETCRQFNRRTHEVWNLDCGAAPAAPAPAAGCGGRIARLEEKVKTLKAQNSELASTANMLREQVAQLKQKVMN
modifications: disulfide dimer; aMD4dY-PA8-cys-Jun; DISULFID 5..20 Disulfide bridge between Cys-5 and Cys-20
Take B6: the “relative reporter activity” value in assay [3] was “showed activity comparable to HGF”.

B7: aMD4dY-PA8-cys-JunΔhep: aMD4dY fusion with c-Jun zipper having heparin binding ability removed, SEQ ID NO: 47 (protein)
chain: MAETCRQFNRRTHEVWNLDCGAAPAAPAPAAGCGGQIAQLEEKVQTLQAQNSELASTANMLREQVAQLKQKVMN
modifications: aMD4dY-PA8-cys-Junhep; DISULFID 5..20 Disulfide bridge between Cys-5 and Cys-20
For B7, the “relative reporter activity” value in assay [3] is “activity was also exhibited”.

B8: aMD4dY-PA8-cys-CEBPα: aMD4dY-CEBPα leucine zipper fusion, SEQ ID NO: 49 (protein)
chain: MAETCRQFNRRTHEVWNLDCGAAPAAPAPAAGCGGRNVETQQKVLELTSDNDRLRKRVEQLSRELDTLRGIFRQ
modifications: aMD4dY-PA8-cys-CEBP; DISULFID 5..20 Disulfide bridge between Cys-5 and Cys-20
In the case of B8, the “relative reporter activity” value in assay [3] was “found to have signal activation ability”.

B9: Jun-cys-PA8-aMD4dY: aMD4dY-leucine zipper fusion, SEQ ID NO: 51 (protein)
chain: MGRIARLEEKVKTLKAQNSELASTANMLREQVAQLKQKVMNGGCGGAAPAAPAPACRQFNRRTHEVWNLDC
modifications: Jun-cys-PA8-aMD4dY; DISULFID 56..71 Disulfide bridge between Cys-56 and Cys-71
For B9, the “relative reporter activity” value in assay [3] is “found to have signal activation ability”.

B10: EMP-Jun-cys-N11-SecM-GS3 (designed binder)
chain: MAETGGLYACHMGPMTWVCQPLRGAAPAAPAPAAGGRIARLEEKVKTLKAQNSELASTANMLREQVAQLKQKVMNGCGGKDHLIHNHHKHEHAHAEHLFSTPVWISQAQGIRAGGSGSGS
modifications: cyclic peptide part closed by a disulfide bond between its two Cys
notes: In the PathHunter assay it was a free cell-free translation product
Turning to B10, in assay [5], the binding result is reported as “binds”.
